Assay [1] has as its target Zot receptor / Zot binding sites on human monocytes/macrophages (CD14+) (human).
The target is the same in assay [2]. As to the kind of experiment: flow cytometry, MESF calibration, several volunteers; reference: lymphocytes. (In general: Flow cytometry measures light scatter and fluorescence of single cells or particles in a stream.)
The target is the same in assay [3]. As to the kind of experiment: 4-color flow cytometry, Zot-FITC 40 ug/ml on PBMC; reference: T or B lymphocytes.
Assay [4] has the same target. As to the kind of experiment: real-time flow cytometry at 37 C, Zot-FITC 40 ug/ml, cells gated on CD14.
Assay [5] deals with Zot binding sites on human T lymphocytes (CD3+) (human). As to the kind of experiment: flow cytometry, MESF calibration, several volunteers.
Assay [6] deals with Zot receptor / Zot binding sites on human monocytes/macrophages (CD14+) (human). The description is as above.
Assay [7] deals with Zot binding sites on human T lymphocytes (CD3+) (human). As to the kind of experiment: flow cytometry, MFI converted with Quantum 26 MESF kit, saturation conditions.
In assay [8] the target is Zot receptor / Zot binding sites on human monocytes/macrophages (CD14+) (human). Described as above.
Assay [9] has as its target Zot binding sites on human T lymphocytes (CD3+) (human). As to the kind of experiment: real-time flow cytometry at 37 C, Zot-FITC 40 ug/ml, cells gated on CD3.
Assay [10] has the same target.
In assay [11] the target is Zot receptor / Zot binding sites on human monocytes/macrophages (CD14+) (human). The source holds these as a separate data set.

Several values for one entry are separate records, joined by “and”; a condition that tells them apart may be missing. Identical values can stand only once.

Consider “6xHis-Zot fusion protein (unlabeled) (from UniProt P38442 1-399)”, for which the % suppression of Zot-FITC mean fluorescence intensity in assay [1] was 24% and 43%.
“Zot-FITC (6xHis-Zot conjugated to fluorescein isothiocyanate, Examples 4-7) (from UniProt P38442 1-399)” yielded a fold of binding sites/cell against lymphocytes in [2] of 10 fold. For the same substance, the fold of binding against T or B lymphocytes in assay [3] was 5 fold and 8 fold. The time to reach binding equilibrium in [4] and in assay [9] was under 2 min each time. Besides, the Zot binding sites/cell (mean of several volunteers) (binding sites/cell) in assay [5] is 10700; in assay [6], 105000. Besides, the Zot-binding sites/cell (binding sites/cell) in assay [7] turned out to be 9000; in assay [8], 106000.
Take “purified Zot (cleaved from the MBP-Zot fusion protein with Factor Xa) (from UniProt P38442 9-399)”: the % decrease of Zot-FITC binding in assay [10] and in [11] was 33% each time.

The values are drawn from patent US6733762.
